This is an account of results in the RNAGym collection of RNA variant scans (doi:10.7554/elife.80360).

The labels stand for the following.
B1: CPEB3 Ribozyme (parent)
chain: GGGGGCCACAGCAGAAGCGUUCACGUCGCGGCCCCUGUCAGAUUCUGGUGAAUCUGCGAAUUCUGCUGU

This series covers variants of B1. The series is described as follows: self-cleavage, relative activity (ratio to wild type); higher = more cleavage; co-transcriptional.
Turning to GGGGGCAACAGCAGAAGCGUUCACGUCGCGGACCCUGUCAGAUUCUGGUGAAUCUGCGAAUUCUGCUGU [C7A C32A], the self-cleavage came out at 0.165.

With GGGGGCAACAGCAGAAGCGUUCCCGUCGCGGCCCCUGUCAGAUUCUGGUGAAUCUGCGAAUUCUGCUGU [C7A A23C], the self-cleavage was found to be 0.407.

As to GGGGGCACCAGCAGAAGCGUUCACGUCGCGGCCCCUGUCAGAUUCUGGUGAAUCUGCGAAUUCUGCUGU [C7A A8C], the self-cleavage was determined as 0.769.

Consider GGGGGCAACAGCAGUAGCGUUCACGUCGCGGCCCCUGUCAGAUUCUGGUGAAUCUGCGAAUUCUGCUGU [C7A A15U], for which the self-cleavage is 0.135.

Consider GGGGGCAACAGCAGAAGCGUUCACGUCGCGGCCCCUGUCAGGUUCUGGUGAAUCUGCGAAUUCUGCUGU [C7A A42G], for which the self-cleavage is 0.471.

Regarding GGGGGCAACAGCAGAAGCGUUCACGUCGCGGCCCCUGUCAGUUUCUGGUGAAUCUGCGAAUUCUGCUGU [C7A A42U], the self-cleavage stood at 0.349.

On to GGGGGCAACAGCAGAAGCGUUCACGUCGCGGCCCCUGUCAGCUUCUGGUGAAUCUGCGAAUUCUGCUGU [C7A A42C], for which the self-cleavage was 0.322.

GGGGGUCACAGCAGAAUCGUUCACGUCGCGGCCCCUGUCAGAUUCUGGUGAAUCUGCGAAUUCUGCUGU [C6U G17U]: the self-cleavage stood at 0.209.

Take GGGGGUCACAGCAGAAGCGUUCACGUCGCGGCCCCUGUCAGAUUCUGUUGAAUCUGCGAAUUCUGCUGU [C6U G48U]: the self-cleavage was 1.

Turning to GGGGGCAACAGCAGAAGCGUUCACGUCGCGGCCCCUGUCAGAUUCUGGUGAAUCUGCGAAUUAUGCUGU [C7A C63A], the self-cleavage was 0.149.

For GGGGGCAACAGCAGAAGCGUUCACGUCGCGGCCCCUGUCAGAUUCUGGUGAAUCUGCGAAUUGUGCUGU [C7A C63G], the self-cleavage was determined as 0.303.

For GGGGGCAACAGUAGAAGCGUUCACGUCGCGGCCCCUGUCAGAUUCUGGUGAAUCUGCGAAUUCUGCUGU [C7A C12U], the self-cleavage amounted to 0.592.

Turning to GGGGGUCACAGCAGAAGCGUUCACGUCGCGGCCCCUGUCAGAUUCUGGUGAAUCUGCGAAUUCUACUGU [C6U G65A], the self-cleavage came to 0.849.

For the variant GGGGGCAACAGCAGAAGCGUUCACGUCGCGGCCCCUGUCAAAUUCUGGUGAAUCUGCGAAUUCUGCUGU [C7A G41A], the self-cleavage amounted to 0.255.

Turning to GGGGGCAACAGCAGAAGCGUUCACGUCGCGGCCCCUGUCAUAUUCUGGUGAAUCUGCGAAUUCUGCUGU [C7A G41U], the self-cleavage came out at 0.214.

On to GGGGGUCACAGCAGAAGCGCUCACGUCGCGGCCCCUGUCAGAUUCUGGUGAAUCUGCGAAUUCUGCUGU [C6U U20C], for which the self-cleavage is 0.144.

With GGGGGUCACAGCAGAAGCGAUCACGUCGCGGCCCCUGUCAGAUUCUGGUGAAUCUGCGAAUUCUGCUGU [C6U U20A], the self-cleavage worked out at 0.115.

As for GGGGGUCACAGCAGAAGCGUUCACGUCGCGGCCCCUGUCAGAUUCUGGUGAAUCUGCGAAUUCUGCAGU [C6U U67A], the self-cleavage worked out at 0.995.

For the variant GGGGGUCACAGCAGAAGCGUUCACGUCGCGGCCCCUGUCAGAUUCUGGUGAAUCUGCGAAUUCUGCCGU [C6U U67C], the self-cleavage was 1.02.

Regarding GGGGGCAACAGCAGAAGCGUUCACGUCGCGGCCCCUGUCAGAUUCUGGUCAAUCUGCGAAUUCUGCUGU [C7A G50C], the self-cleavage worked out at 0.545.

Consider GGGGGCAACAGCAGAAGCGUUCACGUCGCGGCCCCUGUCAGAUUCUGGUGAAUCUGCGCAUUCUGCUGU [C7A A59C], for which the self-cleavage turned out to be 0.239.

For the variant GGGGGUCACAGCAGAAGCGUUCACGUCUCGGCCCCUGUCAGAUUCUGGUGAAUCUGCGAAUUCUGCUGU [C6U G28U], the self-cleavage was determined as 0.168.

For GGGGGCAACAGCAGAAGCGUUCACGUCGCGGCCCCUGUCAGAUUCUGGUGUAUCUGCGAAUUCUGCUGU [C7A A51U], the self-cleavage came to 0.402.

For the variant GGGGGUCACAGCAGAAGCUUUCACGUCGCGGCCCCUGUCAGAUUCUGGUGAAUCUGCGAAUUCUGCUGU [C6U G19U], the self-cleavage amounted to 0.298.

Take GGGGGUCACAGCAGAAGCGUUCACGUCGCGGCCCCUGUCAGAUUCUGGUGAAUCUGCGAAUUCUGCUGC [C6U U69C]: the self-cleavage turned out to be 1.06.

For the variant GGGGGUCACAGCAGAAGCGUUCACGUCGCGGCCCCUGUCAGAUUCUGGUGAAUCUACGAAUUCUGCUGU [C6U G56A], the self-cleavage was 0.962.

Consider GGGGGCAACAGCAGAAGCGUUAACGUCGCGGCCCCUGUCAGAUUCUGGUGAAUCUGCGAAUUCUGCUGU [C7A C22A], for which the self-cleavage came to 0.0549.

Regarding GGGGGCAACAGCAGAAGCGUUUACGUCGCGGCCCCUGUCAGAUUCUGGUGAAUCUGCGAAUUCUGCUGU [C7A C22U], the self-cleavage was found to be 0.139.

Regarding GGGGGCAACACCAGAAGCGUUCACGUCGCGGCCCCUGUCAGAUUCUGGUGAAUCUGCGAAUUCUGCUGU [C7A G11C], the self-cleavage stood at 0.305.

As to GGGGGCAACAGCAGAAGCGUUCACGUCGCGGCCCCUGUCAGAUUAUGGUGAAUCUGCGAAUUCUGCUGU [C7A C45A], the self-cleavage was 0.485.

Regarding GGGGGCAACAGCAGAAGCGUUCACGUCGCGGCCCCUGUCAGAUUUUGGUGAAUCUGCGAAUUCUGCUGU [C7A C45U], the self-cleavage amounted to 0.566.

Take GGGGGUCACAGCAGAAGCGUUCACGUCGCGACCCCUGUCAGAUUCUGGUGAAUCUGCGAAUUCUGCUGU [C6U G31A]: the self-cleavage was 1.02.

As to GGGGGCAACAGCAGAAGCGUUCACGUCGCGUCCCCUGUCAGAUUCUGGUGAAUCUGCGAAUUCUGCUGU [C7A G31U], the self-cleavage turned out to be 0.598.

Regarding GGGGGCAACAGCAGAAGCGUUCACGUCGCGGCCCCUGUCAGAUUCUGGUGAAUCUGGGAAUUCUGCUGU [C7A C57G], the self-cleavage turned out to be 0.179.

Regarding GGGGGCAACAGCAGAAGCGUUCACGUCGCGGCCCCUGUCAGAUUCUGGUGAGUCUGCGAAUUCUGCUGU [C7A A52G], the self-cleavage was determined as 0.515.

GGGGGUCACAGCAGAAGCGUUCACGUCGCGGCCCCUGUCAGAUUCUGGGGAAUCUGCGAAUUCUGCUGU [C6U U49G]: the self-cleavage is 0.956.

Take GGGGGUCACAGCAGAAGCGUUCACGUCGCGGCCCCUGUCAGAUUCUGGAGAAUCUGCGAAUUCUGCUGU [C6U U49A]: the self-cleavage turned out to be 1.

GGGGGUCACAGCAGAAGCGUUCACGUCGCGGCCCCCGUCAGAUUCUGGUGAAUCUGCGAAUUCUGCUGU [C6U U36C]: the self-cleavage is 0.969.

Turning to GGGGGUCACAACAGAAGCGUUCACGUCGCGGCCCCUGUCAGAUUCUGGUGAAUCUGCGAAUUCUGCUGU [C6U G11A], the self-cleavage was 0.861.
